Blank lines part the entries; values can stand above or below the binder they belong to.
Tests used:
recombinant CD3 proteins [1] = molecular target: T1, recombinant CD3 proteins (UniProt P07766 23-126); assay: Octet BLI, recombinant CD3; Full R^2 0.9554
T1 construct: elsewhere it uses human CD3 E/D and E/G heterodimers

recombinant CD3 proteins [2] = molecular target: T1, recombinant CD3 proteins; assay: Octet BLI, recombinant CD3; Full R^2 0.984
recombinant CD3 proteins [3] = molecular target: T1, recombinant CD3 proteins; assay: Octet BLI, recombinant CD3; Full R^2 0.990
recombinant CD3 proteins [4] = molecular target: T1, recombinant CD3 proteins; assay: Octet BLI, recombinant CD3; Full R^2 0.603*
recombinant CD3 proteins [5] = molecular target: T1, recombinant CD3 proteins; assay: Octet BLI, recombinant CD3; Full R^2 0.974

T1 sequence (P07766 23-126): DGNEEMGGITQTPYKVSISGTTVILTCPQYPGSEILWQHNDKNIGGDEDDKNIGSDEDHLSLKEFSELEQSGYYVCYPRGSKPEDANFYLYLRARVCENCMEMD

B1: CD3 × CD33-BspAb98 (bispecific antibody)
chain 1: NFMLTQPHSVSESPGKTVTISCTRSSGSIASNYVQWYQQRPGSSPTTVIYEDNQRPSGVPDRFSGSIDSSSNSASLTISGLKTEDEADYYCQSYDSSNRVFGCGTKLTVLGGGGSGGGGSGGGGSGGGGSEVHLVESGGGLVKPGGSLRLSCAASGFTFSRYSMNWVRQAPGKCLEWVSSISRSSSYIYYADSVKGRFTISRDNAKNSLYLQMNSLRAEDTAVYYCAREPRTLGMDYWGQGILVTVSSDKTHTCPPCPAPEFEGGPSVFLFPPKPKDTLMISRTPEVTCVVVDVSHEDPEVKFNWYVDGVEVHNAKTKPREEQYNSTYRVVSVLTVLHQDWLNGKEYKCKVSNKALPASIEKTISKAKGQPREPQVYTLPPCREEMTKNQVSLWCLVKGFYPSDIAVEWESNGQPENNYKTTPPVLDSDGSFFLYSKLTVDKSRWQQGNVFSCSVMHEALHNHYTQKSLSLSPGK
chain 2: EVQLVQSGAEVKKPGSSVKVSCKASGYTITDSNIHWVRQAPGQSLEWIGYIYPYNGGTDYNQKFKNRATLTVDNPTNTAYMELSSLRSEDTAFYYCVNGNPWLAYWGQGTLVTVSSASTKGPSVFPLAPSSKSTSGGTAALGCLVKDYFPEPVTVSWNSGALTSGVHTFPAVLQSSGLYSLSSVVTVPSSSLGTQTYICNVNHKPSNTKVDKRVEPKSCDKTHTCPPCPAPEFEGGPSVFLFPPKPKDTLMISRTPEVTCVVVDVSHEDPEVKFNWYVDGVEVHNAKTKPREEQYNSTYRVVSVLTVLHQDWLNGKEYKCKVSNKALPASIEKTISKAKGQPREPQVCTLPPSREEMTKNQVSLSCAVKGFYPSDIAVEWESNGQPENNYKTTPPVLDSDGSFFLVSKLTVDKSRWQQGNVFSCSVMHEALHNRFTQKSLSLSPGK
chain 3: DIQLTQSPSTLSASVGDRVTITCRASESLDNYGIRFLTWFQQKPGKAPKLLMYAASNQGSGVPSRFSGSGSGTEFTLTISSLQPDDFATYYCQQTKEVPWSFGQGTKVEVKRTVAAPSVFIFPPSDEQLKSGTASVVCLLNNFYPREAKVQWKVDNALQSGNSQESVTEQDSKDSTYSLSSTLTLSKADYEKHKVYACEVTHQGLSSPVTKSFNRGEC
Kd (recombinant CD3 proteins [1]): 5.1 nM | koff (recombinant CD3 proteins [1]): 0.00333 s⁻¹ | kon (recombinant CD3 proteins [1]): 653000 M⁻¹ s⁻¹

B4: CD3 × CD33-BspAb99 (bispecific antibody)
chain 1: not shown
chain 2: EVQLVQSGAEVKKPGSSVKVSCKASGYTITDSNIHWVRQAPGQSLEWIGYIYPYNGGTDYNQKFKNRATLTVDNPTNTAYMELSSLRSEDTAFYYCVNGNPWLAYWGQGTLVTVSSASTKGPSVFPLAPSSKSTSGGTAALGCLVKDYFPEPVTVSWNSGALTSGVHTFPAVLQSSGLYSLSSVVTVPSSSLGTQTYICNVNHKPSNTKVDKRVEPKSCDKTHTCPPCPAPEFEGGPSVFLFPPKPKDTLMISRTPEVTCVVVDVSHEDPEVKFNWYVDGVEVHNAKTKPREEQYNSTYRVVSVLTVLHQDWLNGKEYKCKVSNKALPASIEKTISKAKGQPREPQVCTLPPSREEMTKNQVSLSCAVKGFYPSDIAVEWESNGQPENNYKTTPPVLDSDGSFFLVSKLTVDKSRWQQGNVFSCSVMHEALHNRFTQKSLSLSPGK
chain 3: DIQLTQSPSTLSASVGDRVTITCRASESLDNYGIRFLTWFQQKPGKAPKLLMYAASNQGSGVPSRFSGSGSGTEFTLTISSLQPDDFATYYCQQTKEVPWSFGQGTKVEVKRTVAAPSVFIFPPSDEQLKSGTASVVCLLNNFYPREAKVQWKVDNALQSGNSQESVTEQDSKDSTYSLSSTLTLSKADYEKHKVYACEVTHQGLSSPVTKSFNRGEC
Kd (recombinant CD3 proteins [4]): 30.7 nM | koff (recombinant CD3 proteins [4]): 0.00421 s⁻¹ | kon (recombinant CD3 proteins [4]): 137000 M⁻¹ s⁻¹

B5: CD3 × CD33-BspAb100 (bispecific antibody)
chain 1: EVQLVESGGGLVKPGGSLRLSCAASGFTFSNYYMNWVRQAPGKCLERVSSISSSSNYIYYADSVKGRFTISRDNAKNSLYLQMNSLRAEDTAVYYCARDRRELPLDYWGQGTVVTVSSGGGGSGGGGSGGGGSGGGGSSYELTQPPSVSVSPGQTARITCSGDALPKKYAYWYQQKSGQAPVLVIYEDSKRPSGIPERFSGSSSGTMATLTISGAQVEDEADYYCYSTDSSGNHWVFGCGTKLTVLDKTHTCPPCPAPEFEGGPSVFLFPPKPKDTLMISRTPEVTCVVVDVSHEDPEVKFNWYVDGVEVHNAKTKPREEQYNSTYRVVSVLTVLHQDWLNGKEYKCKVSNKALPASIEKTISKAKGQPREPQVYTLPPCREEMTKNQVSLWCLVKGFYPSDIAVEWESNGQPENNYKTTPPVLDSDGSFFLYSKLTVDKSRWQQGNVFSCSVMHEALHNHYTQKSLSLSPGK
chain 2: EVQLVQSGAEVKKPGSSVKVSCKASGYTITDSNIHWVRQAPGQSLEWIGYIYPYNGGTDYNQKFKNRATLTVDNPTNTAYMELSSLRSEDTAFYYCVNGNPWLAYWGQGTLVTVSSASTKGPSVFPLAPSSKSTSGGTAALGCLVKDYFPEPVTVSWNSGALTSGVHTFPAVLQSSGLYSLSSVVTVPSSSLGTQTYICNVNHKPSNTKVDKRVEPKSCDKTHTCPPCPAPEFEGGPSVFLFPPKPKDTLMISRTPEVTCVVVDVSHEDPEVKFNWYVDGVEVHNAKTKPREEQYNSTYRVVSVLTVLHQDWLNGKEYKCKVSNKALPASIEKTISKAKGQPREPQVCTLPPSREEMTKNQVSLSCAVKGFYPSDIAVEWESNGQPENNYKTTPPVLDSDGSFFLVSKLTVDKSRWQQGNVFSCSVMHEALHNRFTQKSLSLSPGK
chain 3: DIQLTQSPSTLSASVGDRVTITCRASESLDNYGIRFLTWFQQKPGKAPKLLMYAASNQGSGVPSRFSGSGSGTEFTLTISSLQPDDFATYYCQQTKEVPWSFGQGTKVEVKRTVAAPSVFIFPPSDEQLKSGTASVVCLLNNFYPREAKVQWKVDNALQSGNSQESVTEQDSKDSTYSLSSTLTLSKADYEKHKVYACEVTHQGLSSPVTKSFNRGEC
Kd (recombinant CD3 proteins [5]): 235 nM | koff (recombinant CD3 proteins [5]): 0.0831 s⁻¹ | kon (recombinant CD3 proteins [5]): 354000 M⁻¹ s⁻¹

Continued, values first:

Kd (recombinant CD3 proteins [2]): 16.6 nM | koff (recombinant CD3 proteins [2]): 0.00554 s⁻¹ | kon (recombinant CD3 proteins [2]): 335000 M⁻¹ s⁻¹
B2: CD3 × CD33-BspAb117 (bispecific antibody)
chain 1: NFMLTQPHSVSESPGKTVTISCTRSSGSIASNYVQWYQQRPGSSPTSVIYEDNQRPSGVPDRFSGSIDSSSNSASLTISGLKTEDEADYYCQSYDRSNRVFGCGTKLTVLGGGGSGGGGSGGGGSGGGGSEVQLVESGGGLVKPGGSLRLSCAASGLTFSTYSMNWVRQAPGKCLEWVSSISSSGSYVYYADSVKGRFTMSRDNAKNSLYLQMNSLRAEDTAVYYCARERRELLFDYWGQGTLVTVSSDKTHTCPPCPAPEFEGGPSVFLFPPKPKDTLMISRTPEVTCVVVDVSHEDPEVKFNWYVDGVEVHNAKTKPREEQYNSTYRVVSVLTVLHQDWLNGKEYKCKVSNKALPASIEKTISKAKGQPREPQVYTLPPCREEMTKNQVSLWCLVKGFYPSDIAVEWESNGQPENNYKTTPPVLDSDGSFFLYSKLTVDKSRWQQGNVFSCSVMHEALHNHYTQKSLSLSPGK
chain 2: EVQLVQSGAEVKKPGSSVKVSCKASGYTITDSNIHWVRQAPGQSLEWIGYIYPYNGGTDYNQKFKNRATLTVDNPTNTAYMELSSLRSEDTAFYYCVNGNPWLAYWGQGTLVTVSSASTKGPSVFPLAPSSKSTSGGTAALGCLVKDYFPEPVTVSWNSGALTSGVHTFPAVLQSSGLYSLSSVVTVPSSSLGTQTYICNVNHKPSNTKVDKRVEPKSCDKTHTCPPCPAPEFEGGPSVFLFPPKPKDTLMISRTPEVTCVVVDVSHEDPEVKFNWYVDGVEVHNAKTKPREEQYNSTYRVVSVLTVLHQDWLNGKEYKCKVSNKALPASIEKTISKAKGQPREPQVCTLPPSREEMTKNQVSLSCAVKGFYPSDIAVEWESNGQPENNYKTTPPVLDSDGSFFLVSKLTVDKSRWQQGNVFSCSVMHEALHNRFTQKSLSLSPGK
chain 3: DIQLTQSPSTLSASVGDRVTITCRASESLDNYGIRFLTWFQQKPGKAPKLLMYAASNQGSGVPSRFSGSGSGTEFTLTISSLQPDDFATYYCQQTKEVPWSFGQGTKVEVKRTVAAPSVFIFPPSDEQLKSGTASVVCLLNNFYPREAKVQWKVDNALQSGNSQESVTEQDSKDSTYSLSSTLTLSKADYEKHKVYACEVTHQGLSSPVTKSFNRGEC

Kd (recombinant CD3 proteins [3]): 16.2 nM | koff (recombinant CD3 proteins [3]): 0.00402 s⁻¹ | kon (recombinant CD3 proteins [3]): 249000 M⁻¹ s⁻¹
B3: CD3 × CD33-BspAb115 (bispecific antibody)
chain 1: NFMLTQPHSVSESPGKTVTISCTRTSGSIASNYVQWYQQRPGSSPTTVIYEDNQRPSGVPDRFSGSIDSSSNSASLTISGLKTEDEAAYYCQSYDRSNRVFGCGTKLTVLGGGGSGGGGSGGGGSGGGGSQVQLQESGPGLVKPSETLSLTCTVSGGSISSYYWSWIRQPAGKCLEWIGRIYTSGSTKYNPSLKSRVTMSVDTSKNQFSLKLISVTAADTAVYFCARERIRDLYFDYWGQGTLVTVSSDKTHTCPPCPAPEFEGGPSVFLFPPKPKDTLMISRTPEVTCVVVDVSHEDPEVKFNWYVDGVEVHNAKTKPREEQYNSTYRVVSVLTVLHQDWLNGKEYKCKVSNKALPASIEKTISKAKGQPREPQVYTLPPCREEMTKNQVSLWCLVKGFYPSDIAVEWESNGQPENNYKTTPPVLDSDGSFFLYSKLTVDKSRWQQGNVFSCSVMHEALHNHYTQKSLSLSPGK
chain 2: EVQLVQSGAEVKKPGSSVKVSCKASGYTITDSNIHWVRQAPGQSLEWIGYIYPYNGGTDYNQKFKNRATLTVDNPTNTAYMELSSLRSEDTAFYYCVNGNPWLAYWGQGTLVTVSSASTKGPSVFPLAPSSKSTSGGTAALGCLVKDYFPEPVTVSWNSGALTSGVHTFPAVLQSSGLYSLSSVVTVPSSSLGTQTYICNVNHKPSNTKVDKRVEPKSCDKTHTCPPCPAPEFEGGPSVFLFPPKPKDTLMISRTPEVTCVVVDVSHEDPEVKFNWYVDGVEVHNAKTKPREEQYNSTYRVVSVLTVLHQDWLNGKEYKCKVSNKALPASIEKTISKAKGQPREPQVCTLPPSREEMTKNQVSLSCAVKGFYPSDIAVEWESNGQPENNYKTTPPVLDSDGSFFLVSKLTVDKSRWQQGNVFSCSVMHEALHNRFTQKSLSLSPGK
chain 3: DIQLTQSPSTLSASVGDRVTITCRASESLDNYGIRFLTWFQQKPGKAPKLLMYAASNQGSGVPSRFSGSGSGTEFTLTISSLQPDDFATYYCQQTKEVPWSFGQGTKVEVKRTVAAPSVFIFPPSDEQLKSGTASVVCLLNNFYPREAKVQWKVDNALQSGNSQESVTEQDSKDSTYSLSSTLTLSKADYEKHKVYACEVTHQGLSSPVTKSFNRGEC

From patent publication US20260167721A1 (ABLEXIS, published 2026)
